Test results taken from patent EP4688860A2 (dated 2026).

B1: anti-CD38 scFv of SEQ ID NO:119 (scFv)
scFv: EVQLLESGGGLVQPGGSLRLSCAASGFTFSNYDMSWVRQAPGKGLEWVSTTSASGGNTYYADSVRGRFTISRDNSKNTLYLQMNSLRAEDTAVYYCAKEGDGYNPFRDHYYYFMDVWGKGTTVTVSSGGGGSGGGGSGGGGSETVMTQSPAALSVSPGERATLSCRASQSVSSNLAWYQQKPGQAPRLLIYGASTRATGIPARFSGSGSGTEFTLTISSLQSEDFAVYYCQQYNNWPPYTFGQGTKLEIK
notes: One of the 12 selected scFvs; Also tested inside a CAR
B2: anti-CD38 scFv of SEQ ID NO:110 (scFv)
scFv: QVQLVQSGAEVKKPGASVKVSCKASGYTFNRYVISWVRQAPGQGLEWMGWIRAYNGNTNYAQKFQGRVTMTTDTSTSTAYMELRSLRSDDTAVYYCARDSTTGTTEGMDVWGKGTTVTVSSGGGGSGGGGSGGGGSEIVMTQSPATLSLSPGERATLSCRASQSVSSSYLSWYQQKPGQAPRLLIYGASTRATGIPARFSGSGSGTDFTLTISSLQPEDFAVYYCQQDYNLPLTFGGGTKVEIN
notes: as for B1
B3: anti-CD38 scFv of SEQ ID NO:108 (scFv)
scFv: EVQLLESGGGLVQPGGSLRLSCAASGFTFSSYAMTWVRQAPGKGLEWVSAISPSGGSTFYADSVKGRFTISRDNSKNTLYLEMNSLRAEDTAVYYCAKDLDFYGSGSYSSWGKGTTVTVSSGGGGSGGGGSGGGGSEIVMTQSPATLSLSPGERATLSCRASQSVSNSYLSWYQQKPGQAPRLLIFGTSTRATGIPARFSGSGSGTDFTLTISSLQPEDFAVYHCQQDYKLPYTFGQGTKLEIK
notes: One of the 12 selected fully human scFvs; Also tested inside a CAR (CD8a hinge and transmembrane, OX40, CD3zeta; FLAG tag in Jurkat cells)
B4: anti-CD38 scFv of SEQ ID NO:117 (scFv)
scFv: EVQLVESGGGVVRPGGSLRLSCAASGFTFDDYGMSWVRQAPGKGLEWVSGINWNGGSTGYADSVKGRFTISRDNAKNSLYLQMNSLRAEDTAFYHCAREGDGYKGTFYYYYYMDVWGKGTTVTVSSGGGGSGGGGSGGGGSDIQLTQSPSFLSASVGDRVTITCRASQGIFNYLAWYQQKPGKAPNLLIYAASNLQSGVPSRFSGSGSGTEFTLTISSLQPEDFATYYCQQLNSYPLTFGGGTKVEIK
notes: as for B1
B5: anti-CD38 scFv of SEQ ID NO:109 (scFv)
scFv: EGQLLESGGGLVQPGGSLRLSCAASGFTFSSFAMSWVRQAPGKGLEWVSTISGSGGSTNYADSVKGRFTISRDNSKKTLYLQMSSLRAEDTAVFYCAKGPTSPYSYYMDVWGKGTTVTVSSGGGGSGGGGSGGGGSEIVMTQSPATLSLSPGERATLSCRASQSVSSSFLSWFQQKPGQAPRLLIYGASTRATGIPARFSGSGSGTDFTLTISSLQPEDFAVYYCQQDYNLPYTFGQGTKLEIK
notes: as for B1
B6: anti-CD38 scFv of SEQ ID NO:111 (scFv)
scFv: EAQLLESGGDLVQPGGSLRLSCAASGFTFSSYAMSWVRQAPGKGLEWVSTISVSGDSTYYADSVKGRFTISRDNSKNTLYLQMNSLRAEDTAVYYCAKALLYQGLRMDVWGKGTTVTVSSGGGGSGGGGSGGGGSDIQMTQSPSSLSASVGDRVTITCRASQGIATWLAWYQQKPEKAPKSLIYAASSLQSGVPSRFSGSGSGTDFTLSISSLQPEDFATYYCQQYNSYPLTFGGGTKVEIK
notes: as for B1
B7: anti-CD38 scFv of SEQ ID NO:112 (scFv)
scFv: QVQLVQSGAEVKKPGASVKVSCKASGFTFTSYGFSWVRQAPGQGLEWMGWISAYSGNTKYAQKFQGRVTMTTDTSTSTAYMELRSLRSDDTAVYYCAREGGTTGTFYYYYYMDVWGKGTTVTVSSGGGGSGGGGSGGGGSEIVLTQSPDFQSVTPKEKVTITCRASQSIGRSLHWYQQKPDQSPKLLIKYASQSFSGVPSRFSGSGSGTDFTLTINSLEAEDAATYYCLQSSSLPLTFGGGTKVEIK
notes: as for B1
B8: anti-CD38 scFv of SEQ ID NO:116 (scFv)
scFv: EVQLVESGGGVVRPGGSLRLSCAASGFTFDDYGMSWVRQAPGKGLEWVSGINWNGGSTDYAASVKGRFTISRDNAKNSLYLQMNSLRAEDTALYHCARVFCTNGVCYPYSYYYFMDVWGKGTTVTVSSGGGGSGGGGSGGGGSEIVMTQSPATLSVSPGERATLSCRASQSVSSNLAWYQQKPGQAPRLLTYGASTRATGIPARFSGSGSGTEFTLTISSLQSEDFAVYYCQQYNNWPYTFGQGTRLEIK
notes: as for B1

These binders were tested against T1, human CD38 on cells (human CD38-overexpressing Jurkat cells); CD38-expressing MM.1R, THP-1 and MM.1S target … (human, UniProt P28907 1-300) (assay: summing-up sentence of the examples (cell binding, SPR, CAR format)).
T1 construct: also called CD38+ cells

Row | binding result | Binder
1 | binds | B1
2 | binds | B2
3 | binds | B3
4 | binds | B4
5 | binds | B5
6 | binds | B6
7 | binds | B7
8 | binds | B8
